Reference: patent publication US20100130424A1 (Janssen / Centocor, published 2010)
Where “and” joins values, the source holds several entries; their conditions need not be identical. Identical values can stand only once. No end group written: not given here. *: point of attachment. Succinimide(1-Et,3-yl) = CCN1C(=O)CC(*)C1=O

T1: human CRH receptor type 2 (human, UniProt Q13324 1-411)
T1 sequence (looked up): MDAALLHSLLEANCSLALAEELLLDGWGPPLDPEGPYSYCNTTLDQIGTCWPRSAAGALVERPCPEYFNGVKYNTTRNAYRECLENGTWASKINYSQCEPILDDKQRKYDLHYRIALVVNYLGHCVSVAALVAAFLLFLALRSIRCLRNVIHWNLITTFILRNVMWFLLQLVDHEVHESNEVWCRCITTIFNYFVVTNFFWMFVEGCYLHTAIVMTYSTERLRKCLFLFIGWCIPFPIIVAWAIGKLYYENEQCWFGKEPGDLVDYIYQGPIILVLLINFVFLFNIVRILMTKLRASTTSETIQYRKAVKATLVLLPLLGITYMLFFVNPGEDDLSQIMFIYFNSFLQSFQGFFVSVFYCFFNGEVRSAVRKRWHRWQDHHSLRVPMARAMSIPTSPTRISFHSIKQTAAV


Each molecule was assayed against T1, human CRH receptor type 2 (assay: cell-based or functional assay). Settings: not given.

Sequence of h-SRP (peptide) (peptide): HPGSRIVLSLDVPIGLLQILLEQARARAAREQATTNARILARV
Sequence of human urocortin 2 (peptide) (peptide): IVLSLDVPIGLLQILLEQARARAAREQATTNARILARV

| Molecule | pA50, cAMP | αmax, cAMP |
| --- | --- | --- |
| h-SRP (peptide) | 9.32 -log M and 9.58 -log M and 9.23 -log M | 114 and 109 and 98.6 |
| human urocortin 2 (peptide) | 9.51 -log M | 115 and 129 |

Same assay, conditions: scale: % of the maximum response obtained to h-SCP

| Molecule | αmax, cAMP |
| --- | --- |
| human urocortin 2 (peptide) | 117 |

Molecular target: T1, human CRH receptor type 2
Assay: cell-based or functional assay
Settings: not given
Remark: another data set of the same source

| Molecule | Log DR against h-SCP, cAMP [log10 ratio] | pA50, cAMP |
| --- | --- | --- |
| TKFTLSLDVPCNIMNLLFNIAKAKNLRAQAAANAHLMAQI-NH2 [Cys-variant CRHR2 peptide agonist, SEQ ID NO: 12] | 1.72 | 7.86 -log M |
| TKFTLSLDVCTNIMNLLFNIAKAKNLRAQAAANAHLMAQI-NH2 [Cys-variant CRHR2 peptide agonist, SEQ ID NO: 11] | 0.82 | 8.76 -log M |
| TKFTLSLCVPTNIMNLLFNIAKAKNLRAQAAANAHLMAQI-NH2 [Cys-variant CRHR2 peptide agonist, SEQ ID NO: 9] | 1.89 | 7.8 -log M |
| TKFTCSLDVPTNIMNLLFNIAKAKNLRAQAAANAHLMAQI-NH2 [Cys-variant CRHR2 peptide agonist, SEQ ID NO: 6] | 0.61 | 9.07 -log M |
| TCFTLSLDVPTNIMNLLFNIAKAKNLRAQAAANAHLMAQI-NH2 [Cys-variant CRHR2 peptide agonist, SEQ ID NO: 3] | 0.72 | 8.97 -log M |
| TKFTLSLDVPTNIMNLC(Succinimide(1-Et,3-yl))FNIAKAKNLRAQAAANAHLMAQI-NH2 (N-terminus assumed; SMILES CC[C@H](C)[C@H](NC(=O)[C@H](CCC(N)=O)NC(=O)[C@H](C)NC(=O)[C@H](CCSC)NC(=O)[C@H](CC(C)C)NC(=O)[C@H](Cc1c[nH]cn1)NC(=O)[C@H](C)NC(=O)[C@H](CC(N)=O)NC(=O)[C@H](C)NC(=O)[C@H](C)NC(=O)[C@H](C)NC(=O)[C@H](CCC(N)=O)NC(=O)[C@H](C)NC(=O)[C@H](CCCNC(=N)N)NC(=O)[C@H](CC(C)C)NC(=O)[C@H](CC(N)=O)NC(=O)[C@H](CCCCN)NC(=O)[C@H](C)NC(=O)[C@H](CCCCN)NC(=O)[C@H](C)NC(=O)[C@@H](NC(=O)[C@H](CC(N)=O)NC(=O)[C@H](Cc1ccccc1)NC(=O)[C@H](CSC1CC(=O)N(CC)C1=O)NC(=O)[C@H](CC(C)C)NC(=O)[C@H](CC(N)=O)NC(=O)[C@H](CCSC)NC(=O)[C@@H](NC(=O)[C@H](CC(N)=O)NC(=O)[C@@H](NC(=O)[C@@H]1CCCN1C(=O)[C@@H](NC(=O)[C@H](CC(=O)O)NC(=O)[C@H](CC(C)C)NC(=O)[C@H](CO)NC(=O)[C@H](CC(C)C)NC(=O)[C@@H](NC(=O)[C@H](Cc1ccccc1)NC(=O)[C@H](CCCCN)NC(=O)[C@@H](N)[C@@H](C)O)[C@@H](C)O)C(C)C)[C@@H](C)O)[C@@H](C)CC)[C@@H](C)CC)C(N)=O) [Cys-variant of stresscopin peptide with N-Ethylsuccinimide (NES) reactive group, SEQ ID NO: 53] | ~2.22 | ~7.25 -log M |
| TKFTLSLDVPTNIMNLLFC(Succinimide(1-Et,3-yl))IAKAKNLRAQAAANAHLMAQI-NH2 (N-terminus assumed; SMILES CC[C@H](C)[C@H](NC(=O)[C@H](CCC(N)=O)NC(=O)[C@H](C)NC(=O)[C@H](CCSC)NC(=O)[C@H](CC(C)C)NC(=O)[C@H](Cc1c[nH]cn1)NC(=O)[C@H](C)NC(=O)[C@H](CC(N)=O)NC(=O)[C@H](C)NC(=O)[C@H](C)NC(=O)[C@H](C)NC(=O)[C@H](CCC(N)=O)NC(=O)[C@H](C)NC(=O)[C@H](CCCNC(=N)N)NC(=O)[C@H](CC(C)C)NC(=O)[C@H](CC(N)=O)NC(=O)[C@H](CCCCN)NC(=O)[C@H](C)NC(=O)[C@H](CCCCN)NC(=O)[C@H](C)NC(=O)[C@@H](NC(=O)[C@H](CSC1CC(=O)N(CC)C1=O)NC(=O)[C@H](Cc1ccccc1)NC(=O)[C@H](CC(C)C)NC(=O)[C@H](CC(C)C)NC(=O)[C@H](CC(N)=O)NC(=O)[C@H](CCSC)NC(=O)[C@@H](NC(=O)[C@H](CC(N)=O)NC(=O)[C@@H](NC(=O)[C@@H]1CCCN1C(=O)[C@@H](NC(=O)[C@H](CC(=O)O)NC(=O)[C@H](CC(C)C)NC(=O)[C@H](CO)NC(=O)[C@H](CC(C)C)NC(=O)[C@@H](NC(=O)[C@H](Cc1ccccc1)NC(=O)[C@H](CCCCN)NC(=O)[C@@H](N)[C@@H](C)O)[C@@H](C)O)C(C)C)[C@@H](C)O)[C@@H](C)CC)[C@@H](C)CC)C(N)=O) [Cys-variant of stresscopin peptide with N-Ethylsuccinimide (NES) reactive group, SEQ ID NO: 52] | 0.05 | 9.42 -log M |
| CKFTLSLDVPTNIMNLLFNIAKAKNLRAQAAANAHLMAQI (NES-PEG (about 20 kDa) on Cys 1; C-terminal amide) [Pegylated Cys-variant CRHR2 peptide agonist (NES linker, PEG about 20 kDa), SEQ ID NO: 55] | ~1.61 | ~7.93 -log M |
| TKCTLSLDVPTNIMNLLFNIAKAKNLRAQAAANAHLMAQI (NES-PEG (about 20 kDa) on Cys 3; C-terminal amide) [Pegylated Cys-variant CRHR2 peptide agonist (NES linker, PEG about 20 kDa), SEQ ID NO: 57] | ~1.9 | ~7.64 -log M |
| TKFTLSLDVCTNIMNLLFNIAKAKNLRAQAAANAHLMAQI (NES-PEG (about 20 kDa) on Cys 10; C-terminal amide) [Pegylated Cys-variant CRHR2 peptide agonist (NES linker, PEG about 20 kDa), SEQ ID NO: 64] | ~2.59 | ~6.98 -log M |
| TKFTLSLDVPCNIMNLLFNIAKAKNLRAQAAANAHLMAQI (NES-PEG (about 20 kDa) on Cys 11; C-terminal amide) [Pegylated Cys-variant CRHR2 peptide agonist (NES linker, PEG about 20 kDa), SEQ ID NO: 65] | ~2.75 | ~6.82 -log M |
| TKFTCSLDVPTNIMNLLFNIAKAKNLRAQAAANAHLMAQI (NES-PEG (about 20 kDa) on Cys 5; C-terminal amide) [Pegylated Cys-variant CRHR2 peptide agonist (NES linker, PEG about 20 kDa), SEQ ID NO: 59] | ~2.32 | ~7.22 -log M |
| TKFCLSLDVPTNIMNLLFNIAKAKNLRAQAAANAHLMAQI (NES-PEG (about 20 kDa) on Cys 4; C-terminal amide) [Pegylated Cys-variant CRHR2 peptide agonist (NES linker, PEG about 20 kDa), SEQ ID NO: 58] | ~2.4 | ~7.14 -log M |
| TKFTLCLDVPTNIMNLLFNIAKAKNLRAQAAANAHLMAQI (NES-PEG (about 20 kDa) on Cys 6; C-terminal amide) [Pegylated Cys-variant CRHR2 peptide agonist (NES linker, PEG about 20 kDa), SEQ ID NO: 60] | > 3.22 | ~6.32 -log M |
| TKFTLSCDVPTNIMNLLFNIAKAKNLRAQAAANAHLMAQI (NES-PEG (about 20 kDa) on Cys 7; C-terminal amide) [Pegylated Cys-variant CRHR2 peptide agonist (NES linker, PEG about 20 kDa), SEQ ID NO: 61] | > 3.32 | ~6.22 -log M |
| TKFTLSLCVPTNIMNLLFNIAKAKNLRAQAAANAHLMAQI (NES-PEG (about 20 kDa) on Cys 8; C-terminal amide) [Pegylated Cys-variant CRHR2 peptide agonist (NES linker, PEG about 20 kDa), SEQ ID NO: 62] | > 3.48 | ~6.06 -log M |
| TCFTLSLDVPTNIMNLLFNIAKAKNLRAQAAANAHLMAQI (NES-PEG (about 20 kDa) on Cys 2; C-terminal amide) [Pegylated Cys-variant CRHR2 peptide agonist (NES linker, PEG about 20 kDa), SEQ ID NO: 56] | ~2.34 | ~7.2 -log M |
| TKFTLSLDCPTNIMNLLFNIAKAKNLRAQAAANAHLMAQI (NES-PEG (about 20 kDa) on Cys 9; C-terminal amide) [Pegylated Cys-variant CRHR2 peptide agonist (NES linker, PEG about 20 kDa), SEQ ID NO: 63] | ~2.12 | ~7.45 -log M |
| CKFTLSLDVPTNIMNLLFNIAKAKNLRAQAAANAHLMAQI-NH2 [Cys-variant CRHR2 peptide agonist, SEQ ID NO: 2] | 0.72 | 8.97 -log M |
| TKFTLCLDVPTNIMNLLFNIAKAKNLRAQAAANAHLMAQI-NH2 [Cys-variant CRHR2 peptide agonist, SEQ ID NO: 7] | 2.08 | 7.6 -log M |
| TKFCLSLDVPTNIMNLLFNIAKAKNLRAQAAANAHLMAQI-NH2 [Cys-variant CRHR2 peptide agonist, SEQ ID NO: 5] | 0.76 | 8.93 -log M |
| TKFTLSLDVPTNIMNC(Succinimide(1-Et,3-yl))LFNIAKAKNLRAQAAANAHLMAQI-NH2 (N-terminus assumed; SMILES CC[C@H](C)[C@H](NC(=O)[C@H](CCC(N)=O)NC(=O)[C@H](C)NC(=O)[C@H](CCSC)NC(=O)[C@H](CC(C)C)NC(=O)[C@H](Cc1c[nH]cn1)NC(=O)[C@H](C)NC(=O)[C@H](CC(N)=O)NC(=O)[C@H](C)NC(=O)[C@H](C)NC(=O)[C@H](C)NC(=O)[C@H](CCC(N)=O)NC(=O)[C@H](C)NC(=O)[C@H](CCCNC(=N)N)NC(=O)[C@H](CC(C)C)NC(=O)[C@H](CC(N)=O)NC(=O)[C@H](CCCCN)NC(=O)[C@H](C)NC(=O)[C@H](CCCCN)NC(=O)[C@H](C)NC(=O)[C@@H](NC(=O)[C@H](CC(N)=O)NC(=O)[C@H](Cc1ccccc1)NC(=O)[C@H](CC(C)C)NC(=O)[C@H](CSC1CC(=O)N(CC)C1=O)NC(=O)[C@H](CC(N)=O)NC(=O)[C@H](CCSC)NC(=O)[C@@H](NC(=O)[C@H](CC(N)=O)NC(=O)[C@@H](NC(=O)[C@@H]1CCCN1C(=O)[C@@H](NC(=O)[C@H](CC(=O)O)NC(=O)[C@H](CC(C)C)NC(=O)[C@H](CO)NC(=O)[C@H](CC(C)C)NC(=O)[C@@H](NC(=O)[C@H](Cc1ccccc1)NC(=O)[C@H](CCCCN)NC(=O)[C@@H](N)[C@@H](C)O)[C@@H](C)O)C(C)C)[C@@H](C)O)[C@@H](C)CC)[C@@H](C)CC)C(N)=O) [Cys-variant of stresscopin peptide with N-Ethylsuccinimide (NES) reactive group, SEQ ID NO: 54] | -0.08 | 9.55 -log M |
| TKFTLSLDCPTNIMNLLFNIAKAKNLRAQAAANAHLMAQI-NH2 [Cys-variant CRHR2 peptide agonist, SEQ ID NO: 10] | 1.3 | 8.28 -log M |
| TKCTLSLDVPTNIMNLLFNIAKAKNLRAQAAANAHLMAQI-NH2 [Cys-variant CRHR2 peptide agonist, SEQ ID NO: 4] | 1.03 | 8.65 -log M |
| TKFTLSCDVPTNIMNLLFNIAKAKNLRAQAAANAHLMAQI-NH2 [Cys-variant CRHR2 peptide agonist, SEQ ID NO: 8] | 2.86 | ~6.82 -log M |

The molecules below were run against T1, human CRH receptor type 2 (assay: radioligand competition, [125I]-anti-sauvagine-30, membranes of h-CRHR2 SK-N-MC cells). Settings: not given.

| Molecule | pKI |
| --- | --- |
| h-SRP (peptide) | 7.57 -log M |
| human urocortin 2 (peptide) | 7.74 -log M |
